B1: ETR1^1-407 (domain or fragment, Arabidopsis thaliana, UniProt P49333 1-407, looked up)
chain: MEVCNCIEPQWPADELLMKYQYISDFFIAIAYFSIPLELIYFVKKSAVFPYRWVLVQFGAFIVLCGATHLINLWTFTTHSRTVALVMTTAKVLTAVVSCATALMLVHIIPDLLSVKTRELFLKNKAAELDREMGLIRTQEETGRHVRMLTHEIRSTLDRHTILKTTLVELGRTLALEECALWMPTRTGLELQLSYTLRHQHPVEYTVPIQLPVINQVFGTSRAVKISPNSPVARLRPVSGKYMLGEVVAVRVPLLHLSNFQINDWPELSTKRYALMVLMLPSDSARQWHVHELELVEVVADQVAVALSHAAILEESMRARDLLMEQNVALDLARREAETAIRARNDFLAVMNHEMRTPMHAIIALSSLLQETELTPEQRLMVETILKSSNLLATLMNDVLDLSRLED
notes: Ethylene response 1 (ETR1), Arabidopsis thaliana, residues 1-407; From pETEV16b; also called AtETR1^1-407; source: E. coli C41(DE3)∆(ompF-acrAB), purified (IMAC); not shown: His10, N-terminal, kept
B2: ETR2^1-186 mT2 (domain or fragment, Arabidopsis thaliana, UniProt Q0WPQ2 1-186, looked up)
chain: MVKEIASWLLILSMVVFVSPVLAINGGGYPRCNCEDEGNSFWSTENILETQRVSDFLIAVAYFSIPIELLYFVSCSNVPFKWVLFEFIAFIVLCGMTHLLHGWTYSAHPFRLMMAFTVFKMLTALVSCATAITLITLIPLLLKVKVREFMLKKKAHELGREVGLILIKKETGFHVRMLTQEIRKSL
notes: Ethylene response 2 (ETR2), Arabidopsis thaliana, residues 1-186 (aa 187-773 removed); transmembrane domain; From pGEX4T-1; The plasmid name and the methods put mT2 next to the C-terminal 10x His-tag; also called ETR2 (aa 1-186); ETR2^1-186 mT2 10x His; source: E. coli C41(DE3)∆(ompF-acrAB), purified (IMAC); not shown: His10, C-terminal, kept
B3: ETR1^1-157 mT2 (domain or fragment, Arabidopsis thaliana, UniProt P49333 1-157, looked up)
chain: MEVCNCIEPQWPADELLMKYQYISDFFIAIAYFSIPLELIYFVKKSAVFPYRWVLVQFGAFIVLCGATHLINLWTFTTHSRTVALVMTTAKVLTAVVSCATALMLVHIIPDLLSVKTRELFLKNKAAELDREMGLIRTQEETGRHVRMLTHEIRSTL
notes: Ethylene response 1 (ETR1), Arabidopsis thaliana, residues 1-157 (aa 158-738 removed); transmembrane domain; From pGEX4T-1; also called ETR1^1-157 mT2 10x His; source: E. coli C41(DE3)∆(ompF-acrAB), purified (IMAC); not shown: His10, C-terminal, kept
B4: ETR1^1-316 (domain or fragment, Arabidopsis thaliana, UniProt P49333 1-316, looked up)
chain: MEVCNCIEPQWPADELLMKYQYISDFFIAIAYFSIPLELIYFVKKSAVFPYRWVLVQFGAFIVLCGATHLINLWTFTTHSRTVALVMTTAKVLTAVVSCATALMLVHIIPDLLSVKTRELFLKNKAAELDREMGLIRTQEETGRHVRMLTHEIRSTLDRHTILKTTLVELGRTLALEECALWMPTRTGLELQLSYTLRHQHPVEYTVPIQLPVINQVFGTSRAVKISPNSPVARLRPVSGKYMLGEVVAVRVPLLHLSNFQINDWPELSTKRYALMVLMLPSDSARQWHVHELELVEVVADQVAVALSHAAILEES
notes: From pETEV16b; also called AtETR1^1-316; ETR1 (aa 1-316); source: E. coli C41(DE3)∆(ompF-acrAB), purified (IMAC); not shown: His10, N-terminal, kept

Target: the molecule itself
Experiment: SDS-PAGE and Western blot; IMAC-purified receptor constructs on SDS-PAGE (colloidal Coomassie) and Western blot (anti-GFP-HRP for ETR2^1-186 mT2, anti-His-HRP for the others); SDS-stable dimers seen beside monomers

Binding result, binds:
B1
B2
B3
B4
